Test results as given in publication PMC6520340, “Development of a ribonuclease containing a G4-specific binding motif for programmable RNA cleavage”.

Target: RNase HI catalytic domain (wild-type) (Bacillus halodurans, UniProt Q9KEI9 59-196)
Test: EMSA; 10 uM DNA, 50 uM protein; 100 mM K+; Native 10% PAGE in 1X TBE, 20 mM potassium phosphate, 100 mM KCl, pH 7.0; UV shadowing; temperature not stated
Settings: protein: recombinant

RNase HI catalytic domain (wild-type), sequence (Q9KEI9 59-196): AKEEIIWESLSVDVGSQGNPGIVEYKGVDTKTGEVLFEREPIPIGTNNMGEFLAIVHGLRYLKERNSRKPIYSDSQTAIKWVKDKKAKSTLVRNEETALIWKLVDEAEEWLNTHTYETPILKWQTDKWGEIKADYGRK

Row | Binder | binding result (single strand) | binding result (parallel G4 with 3' single-stranded tail)
1 | TTGACTAAGTGCCTTAGTTCAACGACGACGGCATCATC (ssDNA) [B0] | no binding | –
2 | TTGGGTGGGTGGGTGGGTTCAACGACGACGGCATCATC (structured_DNA) [B1] | – | no binding
